Consider one substance from patent US20150197564A1.

In the experiment the target is hANGPTL3(17-460)-His (human) (UniProt Q9Y5C1). Kind of experiment: Biacore cross-competition, 25C; first antibody at 25 µg/ml on captured antigen. For orientation: SPR reads the build-up and loss of mass on a sensor chip optically.
Sequence of hANGPTL3(17-460)-His (human) (Q9Y5C1 other isoform, or with tags, fused parts or gaps): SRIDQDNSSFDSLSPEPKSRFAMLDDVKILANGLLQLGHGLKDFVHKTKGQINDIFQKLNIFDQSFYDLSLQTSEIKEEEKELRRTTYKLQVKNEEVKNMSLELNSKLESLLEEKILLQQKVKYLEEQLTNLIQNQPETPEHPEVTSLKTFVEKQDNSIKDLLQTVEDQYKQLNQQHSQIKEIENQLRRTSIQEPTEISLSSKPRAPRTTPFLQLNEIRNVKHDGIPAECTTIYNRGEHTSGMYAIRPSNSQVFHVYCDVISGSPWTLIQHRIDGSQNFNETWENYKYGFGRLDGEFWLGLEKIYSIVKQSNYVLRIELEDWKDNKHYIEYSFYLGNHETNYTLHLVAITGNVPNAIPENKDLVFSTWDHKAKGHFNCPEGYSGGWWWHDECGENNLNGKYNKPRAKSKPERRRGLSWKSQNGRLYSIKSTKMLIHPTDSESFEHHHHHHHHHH

For the substance Negative Control (Table 8) (antibody), the mAb1 binding response (RU) was 81 RU.
